Reference: the nanobody polyreactivity screen of Harvey et al. (2022)

test: yeast display, Sf9 membrane polyspecificity reagent, FACS + sequencing; frameworks hold sequencing errors
How it was run: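 Genes from sorted yeast were amplified by colony PCR, read by MiSeq 2 × 250 sequencing and filtered on CDR length. These cells carried a synthetic nanobody library in Saccharomyces cerevisiae BJ5465 and were sorted by FACS into low and high (top ~1%) gates on anti-HA and streptavidin fluorescence. Polyreactivity is labelled according to the gate of origin.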

Sequence	polyreactivity (PSR sort gate)
QVQLVESGGGLVQAGGSLRLSCAASGSIFASYAMGWYRQEPGKERELVAAISRRAVRTYYADSVKGRFTISRDNAQNTVYLQMNSLKPEDTAVFYCAKDYRDWRKYDFWGQGTQVTVSS	high polyreactivity
QVQLVESGGGLVQAGGSLRLSCAASGSIFATNAMGWYRQAPGKERELVAAISRSGASTYYADSVKGRFTISRDNAKNTVYLQMNSLKPEDPAVYYCNKVLYRDAYHSYGFDYWGQGTQVTVSS	high polyreactivity
QVQLVESGGGLVQAGGSLRLSCAASGSIFATNAMGWYRQAPGKERELVATITNSGASTSYADSVKGRFTISRDNAKNTVYLQMNSLKPEDTAVYYCNAYGYRAYGVRGYTYGYDYWGQGTQVTVSS	low polyreactivity
QVQLVESGGGLVQAGGSLRLSCAASGSIFATYAMGWYRQAPGKEMELVAVISCGGGRTNYADSVKGRFTISRDNAKNTVYLQLNSLKPEDTAVYYCAAGGYWRIATDGPRGGDYWGQGTQVTVSS	high polyreactivity
QVQLVESGGGLVQAGGSLRLSCAASGSIFAVNPMGWYRQAPGKERELVASITSGGSTNYADSVKGRFTISRDNAKIRVYLQMNRLKPEDTAVYYCNADSVRAVSRYDYWGQGTQVTVSS	low polyreactivity
QVQLVESGGGLVQAGGSLRLSCAASGSIFAVNTMGWYRQAPGKERELVAAISQRGSSTYYADSVKGRFTISRDNAKNTVYLKMNSMKPEDTAVFFCAKRFIYGLYNYWGQGTQVTVSS	high polyreactivity
QVQLVESGGGLVQAGGSLRLSCAASGSIFAWNAMGWYRQAPGKERELVATIRSTGGSTYYADSVKGRFTISRDNAKNTVYLQMNSLKPEYTAVYYCAADYQAGDKLYDYWGQGTQVTVSS	low polyreactivity
QVQLVESGGGLVQAGGSLRLSCAASGSIFAWYGMGWYRQAPGKERELVAAISTAGSTNYADSVKGRFTISRDNAKNSVYLQMNSLKPEDTAVYYCAKKSSWYYPERFDYWGQGTQVTVSS	low polyreactivity
QVQLVESGGGLVQAGGSLRLSCAASGSIFAWYGMGWYRQAPGKERELVAAITSTGSTYYADSVKGRFTISRDNAKNTVYLQMNSLKPEDTAVYYCNAYSVYLWRPGDYWGQGTQVTVSS	low polyreactivity
QVQLVESGGGLVQAGGSLRLSCAASGSIFAYNAMGRYRPAPGKERELVAAITSDDSTNYADSVKGSFTISRDNAQNTVYLQMNSLKPEDTAVYDCAAYYYYTYIIGYDYCGQGTQVTVSS	low polyreactivity
QVQLVESGGGLVQAGGSLRLSCAASGSIFAYNAMGWYRQAPGKEREFVAAISQSGGRTYYADSVKGRFTISRDNAKNTVYLQMNSLKPEDTAVYYCATDGIRLTRHRDYDYWGQGTQVTVSS	low polyreactivity
QVQLVESGGGLVQAGGSLRLSCAASGSIFAYNAMGWYRQAPGKEREFVAVITRSDDSTYADSVKGRFTISRDNAKNTVYLQMNSLKPEDTAVYYCAAEYYETPYASLGYDYWGQGTQVTVSS	low polyreactivity
QVQLVESGGGLVQAGGSLRLSCAASGSIFAYNAMGWYRQAPGKERELVAAITDSGGSTFYADSVKGRFTISRDNAKTTVYLQMNSQKPEDTAVYYCATSGDRLVWGQCTQVTVSS	low polyreactivity
QVQLVESGGGLVQAGGSLRLSCAASGSIFAYYAMGMYRQEPGKERELVAVIRSGGSTYYADSVKGRFTISRDNAKNTVYLQMNSLKPEDTAVYYCAARSYRPTRGDYWGQGTQVTVSS	high polyreactivity
QVQLVESGGGLVQAGGSLRLSCAASGSIFAYYAMGWYRPAPGKERELVAAITVSGGRTNYADSVKGRFTISRDNAKNTVYLQMNSLKPEDTAVYYCAADTYSYWYARYDYWGQGTQVTVSS	high polyreactivity
QVQLVESGGGLVQAGGSLRLSCAASGSIFAYYAMGWYRQAPGKEMELVARIRRRSSSTFYADSVKGRFTISRDNAKNTVYLQMNSLKPEDTAVYYCAVRGPGTSTYWYHEYEYWGQGTQVTVSS	high polyreactivity
QVQLVESGGGLVQAGGSLRLSCAASGSIFAYYAMGWYRQAPGKERELVAAISRGGGSTYYADSVKGRFTISRDNAKNTVYLQMNSLKPEDTAVYYCAAQYVYWTNRVRQHVTLNDYWGQGTQVTVSS	high polyreactivity
QVQLVESGGGLVQAGGSLRLSCAASGSIFAYYAMGWYRQAPGKERELVAAISWSGGRTYYADSVKGRFTISRDNAKNTVYLEMNSLIPEDTAVYYCTAYFYSFYYPFPYESWGQGTQVTVSS	low polyreactivity
QVQLVESGGGLVQAGGSLRLSCAASGSIFAYYAMGWYRQAPGKERELVAAITSGDSTYYADSVKGRFTISRDNAKNTVYLQMNSLKPEDTAVYYCAADHIWFYFYLYDYWGQGTQVTVSS	high polyreactivity
QVQLVESGGGLVQAGGSLRLSCAASGSIFAYYTMGWYRQAHGKERELVAAISRSGGSTNYADSVKGRFTISRDNAKNTVYLQMNSLKPEDTAVYYCAVRRYSRRLFGYYYWGQGTQVTVSS	high polyreactivity
QVQLVESGGGLVQAGGSLRLSCAASGSIFCYYAMGWYRQAPGKERELVAAINSGVRTYYADSVKGRFTISRDNAKNTVYLQMISLKPEDTAVYYCAARYIFKGLRYGYWGQGTQVTVSS	high polyreactivity

Sequence	polyreactivity (PSR sort gate)
QVQLVESGGGLVQAGGSLRLSCAASGSIFDAYMGWYRQAPGKERELVAGITRSGGSTYYADSVKGRFTISRDNAKNTVYLQMNSLKPEDTAVYYCAADYSSDGDYWGQGTQVTVSS	low polyreactivity
QVQLVESGGGLVQAGGSLRLSCAASGSIFDDNAMGWYRQAPGKERELVAAITSTDSTNYADSVKGRFTISRDNAKNTVYLQMNSLKPEDTAVYYCAKDARALWLHSGIYDYWGQGTQVTVSS	low polyreactivity
QVQLVESGGGLVQAGGSLRLSCAASGSIFDDYAMGWYRQAPGKERELVAANSGSGDITYYADSVKGRFTISRDNAKNTFYLQMNSLKPEDTAVYYCAAESVYTFYWGQGTQVTVSS	high polyreactivity
QVQLVESGGGLVQAGGSLRLSCAASGSIFDDYVMGWYRQAPGKERELVAAIRSSGGRTYYADSVKGRFTISRDNAKNTVYLQMISLKPEDTAVYYCNAVTKHRQSVPYAYGYWGQGTQVTVSS	high polyreactivity
QVQLVESGGGLVQAGGSLRLSCAASGSIFDGNAMGWYRQAPGKERELVASITYRGGSTYYADSVKGRFTISRDNAKNTVYLQMNSLQPEDTAVYYCAAVFKYRYDYWGQGTQVTVSS	low polyreactivity
QVQLVESGGGLVQAGGSLRLSCAASGSIFDGYAMGWDRQAPGKEREFVATITVSGGRTYYADSVKGRFTISRDNAKTTVYLQRNSLKPEDTAVYYCAARKVPLIRSSTVRQYYYWGQGTQVTVSS	high polyreactivity
QVQLVESGGGLVQAGGSLRLSCAASGSIFDGYAMGWYRQAPGKEREFVAAITKRTGRTYYADSVKGRFTISRDNAKNTVYLQMNSLKPEDTAVYSCAARKKSLTTLRYGYWGQGTQVTVSS	high polyreactivity
QVQLVESGGGLVQAGGSLRLSCAASGSIFDGYAMGWYRQAPGKERELVAAISASGVRTYYADSVKGRFTISRDNAKNTVYLQMNSLKPEDTAVYYCAAAVYYGQSVWYYYWGQGTQVTVSS	high polyreactivity
QVQLVESGGGLVQAGGSLRLSCAASGSIFDHNAMGWYRQAPGKEREFVAAISSSGGSTYYADSVKGRFTISRDKAKNTVYLQMNSLKPEDTAVYYCAAFPDRYVEHGYWGQGTQVTVSS	low polyreactivity
QVQLVESGGGLVQAGGSLRLSCAASGSIFDHTKAMGRYRQSPGKERELVAGITRGGSTNYADSVKGRFTISRDNAKNTFYLQMNSLKPEDTAVYYCAKAMPAKFYSEAGYDYWGQGTQVTVSS	low polyreactivity
QVQLVESGGGLVQAGGSLRLSCAASGSIFDIYAMGWYRQAPGKERELVAAITNGGSTYADSVKGRFTISRDNAKNTVYLQMNSLKPEDTAVYYCAAYVDQYEYNYWGQGTQVTVSS	low polyreactivity
QVQLVESGGGLVQAGGSLRLSCAASGSIFDIYGMGWYRQAPGKESELFASISGGAGSTNYADSVKGRFTISRDNAKNTVYLQMNSLKPEDTAVYYCAAEVYVPDYFQHKFDVEYEYWGQGTQVTVSS	low polyreactivity
QVQLVESGGGLVQAGGSLRLSCAASGSIFDKNAMGWYRQAPGKERELVAAITSSGGDTYYADSVKGRFTISRDNAKNTVYLQMYSLKPEDTAVYYCAALGGRYRASTYGYWGQGTQVTVSS	high polyreactivity
QVQLVESGGGLVQAGGSLRLSCAASGSIFDLNAMGWYRQAPGKERELVAAISKSGGSTYYADSVKGRFTISRDNAKHTVYLQMNSLKPEDTAVYYCAARYHYPGNWYNYWGQGTQVTVSS	low polyreactivity
QVQLVESGGGLVQAGGSLRLSCAASGSIFDLYAMGWYRQAPGKERELVAAITSTGSTYYADSVKGRFTISRDNAKNTVYLQMNSLKPEDTAVYYCAATRGSSEYYYWGQGTQVTVSS	low polyreactivity
QVQLVESGGGLVQAGGSLRLSCAASGSIFDLYAMGWYRQAPGKERELVASIRYSGGRTYYADSVKGRFTISRDNAKNTVYLQMNSLKPEDTAVYYCNRDGGYTFIMDYWGQGTQVTVSS	low polyreactivity
QVQLVESGGGLVQAGGSLRLSCAASGSIFDLYDMGWYRQAPGKERELVADISFSGGSTFYADSVKGRFTISRDNAKNTVYLQMNSLKPEDTAVYYCAADAALITDYGWADMYYWGQGTQVTVSS	low polyreactivity
QVQLVESGGGLVQAGGSLRLSCAASGSIFDNNAMGSYRQAPGKERELVAGINWDDGSTYYADSVKGRFTISRDNAKNTVHLQMISLKPEETAVYYCARDVYVYRWNDFWAVWTWYDYWGQGTQVTVSS	low polyreactivity
QVQLVESGGGLVQAGGSLRLSCAASGSIFDNNAMGWYRQAPGKERELVAVITRSGGSTHYADSVKGRFTISRDNAKNTVYLQMNSLKPEDTAVYYCATDGLFYVDGSWTLGYWGQGTQVTVSS	low polyreactivity
QVQLVESGGGLVQAGGSLRLSCAASGSIFDNNSMGWYRQAPGKERELVAAIDWSDGSTYYADSVKWRFTISRDNAKNTVYLQMNSLIPEDTSVYYCATVGKQKYDAKYGYWGQGTQVTVSS	high polyreactivity
